Source: US8398971B2, “Methods, compounds, and compositions for treatment and prophylaxis in the respiratory tract” (NexBio, Inc., priority 2009, dated 2013)
Like-named read-outs stand apart in the source and are kept apart here.

Key:
[1] = tested on: muscarinic receptor mediated airway resistance; experiment: airway resistance (Penh) in naive mice, methacholine challenged; assay type: in vivo, BALB/c mice; conditions: for dosage level sufficient for reduced airway responsiveness: intranasal once daily for three days
[2] = tested on: muscarinic receptor mediated airway resistance; assay type: in vivo, BALB/c mice; conditions: Example 5, 5, 10 and 20 mg/ml carbachol

B1: DAS181: fusion protein comprising a catalytic domain of a sialidase, and an anchoring domain (SEQ ID NO:21) (protein)
chain: MGDHPQATPAPAPDASTELPASMSQAQHLAANTATDNYRIPAITTAPNGDLLISYDERPKDNGNGGSDAPNPNHIVQRRSTDGGKTWSAPTYIHQGTETGKKVGYSDPSYVVDHQTGTIFNFHVKSYDQGWGGSRGGTDPENRGIIQAEVSTSTDNGWTWTHRTITADITKDKPWTARFAASGQGIQIQHGPHAGRLVQQYTIRTAGGAVQAVSVYSDDHGKTWQAGTPIGTGMDENKVVELSDGSLMLNSRASDGSGFRKVAHSTDGGQTWSEPVSDKNLPDSVDNAQIIRAFPNAAPDDPRAKVLLLSHSPNPRPWSRDRGTISMSCDDGASWTTSKVFHEPFVGYTTIAVQSDGSIGLLSEDAHNGADYGGIWYRNFTMNWLGEQCGQKPAKRKKKGGKNGKNRRNRKKKNP
B1 was tested, and the “difference in airway resistance between dose groups” value ([1]; Example 3, 0.06, 0.1, 0.6 mg/kg) was “No difference was observed between the different dose groups”, the “airway resistance vs PBS” value ([1]; Example 3, 0.06, 0.1 or 0.6 mg/kg intranasal once daily for three days, 48 mg/ml Mch) was “significantly reduced airway resistance” and the “dosage level sufficient for reduced airway responsiveness” value ([1]; Example 3) was at most 0.06 mg/kg. For the same molecule, the “airway resistance vs PBS control” value ([1]; Example 4, 0.6 mg/kg once daily for three days, 6, 12, 24 and 48 mg/ml Mch) was “significantly reduced airway resistance”, the “airway resistance vs baseline” value ([1]; Example 4, 0.6 mg/kg, 3 and 6 mg/ml methacholine) was “did not increase airway resistance above baseline” and the “airway resistance vs baseline” value ([1]; Example 4, 0.6 mg/kg, 12, 24 and 48 mg/ml methacholine) was “increased airway resistance above baseline”. The “airway resistance in response to Mch challenge vs PBS” value ([1]; Example 7, 0.6 mg/kg, one day of treatment) was “no difference in airway resistance”, the “airway resistance vs PBS” value ([1]; Example 7, 0.6 mg/kg, three days of treatment, 24 and 48 mg/ml Mch) was “significantly reduced airway resistance” and the “airway resistance vs PBS” value ([1]; Example 7, 0.6 mg/kg, two days of treatment, 3, 6 and 48 mg/ml methacholine) was “not at 3, 6 and 48 mg/ml”. For the same molecule, the “airway resistance vs PBS” value ([1]; Example 7, 0.6 mg/kg, two days of treatment, 12 and 24 mg/ml methacholine) was “appears to reduce airway resistance”, the “difference in airway resistance between dose groups” value ([1]; Example 8, 0.0008, 0.004, 0.02, 0.1 mg/kg) was “No difference was observed between the different dose groups” and the “airway resistance vs PBS” value ([1]; Example 8, 0.0008, 0.004, 0.02 or 0.1 mg/kg once daily for three days, 24 and 48 mg/ml Mch) was “significantly reduced airway resistance”. The “dosage level sufficient for reduced airway responsiveness” value ([1]; Example 8) was at most 0.0008 mg/kg, the “average percentage change Penh (increase in airway resistance over baseline)” value ([1]; Example 9, 10 ng/kg once daily three days, 24 mg/ml Mch, PBS 550-560%) was 525-530% and the “average percentage change Penh (increase in airway resistance over baseline)” value ([1]; Example 9, 0.1 μg/kg, 24 mg/ml Mch) was 450%. The “average percentage change Penh (increase in airway resistance over baseline)” value ([1]; Example 9, 1 μg/kg, 24 mg/ml Mch) was 525%, the “average percentage change Penh (increase in airway resistance over baseline)” value ([1]; Example 9, 10 μg/kg, 24 mg/ml Mch) was 225% and the “average percentage change Penh (increase in airway resistance over baseline)” value ([1]; Example 9, 0.1 mg/kg, 24 mg/ml Mch) was 200%. For the same molecule, the “airway resistance vs PBS” value ([1]; Example 9, all doses 10 ng/kg to 0.1 mg/kg, 24 mg/ml Mch) was “reduced airway resistance”, the “airway resistance in response to Mch” value ([1]; Example 9, dose levels of 0.01 or 0.1 mg/kg) was “significantly reduced airway resistance” and the “airway resistance vs PBS” value ([2]; 0.6 mg/kg once daily for three days) was “significantly reduced airway resistance”. For the same molecule, the “airway resistance vs baseline” value ([2]; 0.6 mg/kg) was “increased airway resistance above baseline”.
